Target: T1, α7 nicotinic-receptor (in rat brain slices / rat brain membranes) (rat, UniProt Q05941 23-502)
T1 construct: whole, on cells; also called α7 receptor; alpha-7 nicotinic acetylcholine receptor
Test: [3H] ivermectin displacement, rat brain membranes (told in the legend of FIG. 6 only)

T1 sequence (Q05941 23-502): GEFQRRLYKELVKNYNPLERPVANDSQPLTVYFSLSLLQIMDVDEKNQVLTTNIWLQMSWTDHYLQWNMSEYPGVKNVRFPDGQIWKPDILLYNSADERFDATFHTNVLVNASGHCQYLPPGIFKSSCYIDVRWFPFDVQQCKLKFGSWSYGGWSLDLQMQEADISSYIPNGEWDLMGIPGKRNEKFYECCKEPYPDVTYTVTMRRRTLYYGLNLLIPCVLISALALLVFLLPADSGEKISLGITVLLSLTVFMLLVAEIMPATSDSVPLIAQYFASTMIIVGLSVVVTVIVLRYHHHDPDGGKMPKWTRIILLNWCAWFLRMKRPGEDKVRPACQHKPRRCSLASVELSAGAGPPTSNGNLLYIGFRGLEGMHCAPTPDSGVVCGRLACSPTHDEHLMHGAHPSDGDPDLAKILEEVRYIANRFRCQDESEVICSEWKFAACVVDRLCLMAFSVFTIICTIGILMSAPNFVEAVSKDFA

binding result: binds
Binder: AEFHRWSSYMVHWK (also called linear T14) [T14 (AChE C-terminal peptide, linear)]

From patent publication US20210388331A1 (NEURO BIO, published 2021)
